Here are results for 21 molecules from patent US20210380703A1.

Sequences and labels used below:
B1: 376_A02 (antibody, V domains shown)
VH: EVQLLESGGGLVQPGGSLRLSCAASGFTFSSYSMNWVRQAPGKGLEWVAGINYNGGYKSYADSVKGRFTISRDNSKNTLYLQMNSLRAEDTAVYYCARGATWHDTHLDYWGQGTLVTVSS
VL: DIQMTQSPSSLSASVGDRVTITCRASQSILSYLNWYQQKPGKAPKLLIYAATSRASGVPSRFSGSGSGTDFTLTISSLQPEDFATYYCQQSYDLPLTFGGGTKVEIK
B2: 365_A03 (antibody, V domains shown)
VH: EVQLLESGGGLVQPGGSLRLSCAASGFTFSSYSMNWVRQAPGKGLEWVAGINYNSGYKGYADSVKGRFTISRDNSKNTLYLQMNSLRAEDTAVYYCARSANWHDTALDYWGQGTLVTVSS
VL: DIQMTQSPSSLSASVGDRVTITCRASQSILSYLNWYQQKPGKAPKLVIYAVTSRASGVPSRFSGSGSGTDFTLTISSLQPEDFATYYCQQSYDSPLTFGGGTKVEIK
B3: 365_B07 (antibody, V domains shown)
VH: EVQLLESGGGLVQPGGSLRLSCAASGFTFSSYGMHWVRQAPGKGLEWVASINYNSGYTSYADSVKGRFTISRDNSKNTLYLQMNSLRAEDTAVYYCARSANWHDTALDYWGQGTLVTVSS
VL: DIQMTQSPSSLSASVGDRVTITCRASQSILTYLNWYQQKPGKAPKLLIYAATSRASGVPSRFSGSGSGTDFTLTISSLQPEDFATYYCQQSYENPLTFGGGTKVEIK
B4: 365_C01 (antibody, V domains shown)
VH: EVQLLESGGGLVQPGGSLRLSCAASGFTFDSYGMNWVRQAPGKGLEWVSSINYNSGYKSYADSVKGRFTISRDNSKNTLYLQMNSLRAEDTAVYYCARSANWHDTHLDYWGQGTLVTVSS
VL: DIQMTQSPSSLSASVGDRVTITCRASQSIVSYLNWYQQKPGKAPKLVIYAVTSRASGVPSRFSGSGSGTDFTLTISSLQPEDFATYYCQQSYESPLTFGGGTKVEIK
B5: 365_E01 (antibody, V domains shown)
VH: EVQLLESGGGLVQPGGSLRLSCAASGFTFSDYSMNWVRQAPGKGLEWVSGINYNSGYKGYADSVKGRFTISRDNSKNTLYLQMNSLRAEDTAVYYCARSANWHDTALDYWGQGTLVTVSS
VL: DIQMTQSPSSLSASVGDRVTITCRASQSIISYLNWYQQKPGKAPKLLIYAATSRASGVPSRFSGSGSGTDFTLTISSLQPEDFATYYCQQSYDSPLTFGGGTKVEIK
B6: 365_D09 (antibody, V domains shown)
VH: EVQLLESGGGLVQPGGSLRLSCAASGFTFSSYGMHWVRQAPGKGLEWVSGINYNSGYTSYADSVKGRFTISRDNSKNTLYLQMNSLRAEDTAVYYCARSANWHDTALDYWGQGTLVTVSS
VL: DIQMTQSPSSLSASVGDRVTITCRASQSILSYLNWYQQKPGKAPKLLIYAATSRASGVPSRFSGSGSGTDFTLTISSLQPEDFATYYCQQSDESPLTFGGGTKVEIK
B7: 365_C11 (antibody, V domains shown)
VH: EVQLLESGGGLVQPGGSLRLSCAASGFTFSSYSMNWVRQAPGKGLEWVAGINYNGGYKSYADSVKGRFTISRDNSKNTLYLQMNSLRAEDTAVYYCARSANWHDTHLDYWGQGTLVTVSS
VL: DIQMTQSPSSLSASVGDRVTITCRASQSIITYLNWYQQKPGKAPKLVIYAVTSRASGVPSRFSGSGSGTDFTLTISSLQPEDFATYYCQQSYSLPLTFGGGTKVEIK
B8: 365_D12 (antibody, V domains shown)
VH: EVQLLESGGGLVQPGGSLRLSCAASGFTFDSYGMNWVRQAPGKGLEWVSNINYNGGYTGYADSVKGRFTISRDNSKNTLYLQMNSLRAEDTAVYYCARSANWHDTALDYWGQGTLVTVSS
VL: DIQMTQSPSSLSASVGDRVTITCRASQSIVTYLNWYQQKPGKAPKLVIYAATSRASGVPSRFSGSGSGTDFTLTISSLQPEDFATYYCQQSYDTPLTFGGGTKVEIK
B9: 365_B01 (antibody, V domains shown)
VH: EVQLLESGGGLVQPGGSLRLSCAASGFTFDSYGMHWVRQAPGKGLEWVASINYNSGYTSYADSVKGRFTISRDNSKNTLYLQMNSLRAEDTAVYYCARSANWHDTALDYWGQGTLVTVSS
VL: DIQMTQSPSSLSASVGDRVTITCRASQSISSYVNWYQQKPGKAPKLVIYAATSRASGVPSRFSGSGSGTDFTLTISSLQPEDFATYYCQQSYESPLTFGGGTKVEIK
B10: 365_C12 (antibody, V domains shown)
VH: EVQLLESGGGLVQPGGSLRLSCAASGFTFSSYGMNWVRQAPGKGLEWVAGINYNSGYKSYADSVKGRFTISRDNSKNTLYLQMNSLRAEDTAVYYCARSANWHDTALDYWGQGTLVTVSS
VL: DIQMTQSPSSLSASVGDRVTITCRASQSIVSYVNWYQQKPGKAPKLVIYAVTSLASGVPSRFSGSGSGTDFTLTISSLQPEDFATYYCQQSYDTPLTFGGGTKVEIK
B11: 365_B11 (antibody, V domains shown)
VH: EVQLLESGGGLVQPGGSLRLSCAASGFTFSSYGMHWVRQAPGKGLEWVAGINYNGGYTSYADSVKGRFTISRDNSKNTLYLQMNSLRAEDTAVYYCARSANWHDTALDYWGQGTLVTVSS
VL: DIQMTQSPSSLSASVGDRVTITCRASQSIISYLNWYQQKPGKAPKLVIYATTSRHSGVPSRFSGSGSGTDFTLTISSLQPEDFATYYCQQSYDSPLTFGGGTKVEIK
B12: 365_A12 (antibody, V domains shown)
VH: EVQLLESGGGLVQPGGSLRLSCAASGFTFSSYGMHWVRQAPGKGLEWVAGINYNGGYTSYADSVKGRFTISRDNSKNTLYLQMNSLRAEDTAVYYCAKSANWHDTHLDYWGQGTLVTVSS
VL: DIQMTQSPSSLSASVGDRVTITCRASQSILTYVNWYQQKPGKAPKLLIYAATSRHSGVPSRFSGSGSGTDFTLTISSLQPEDFATYYCQQSYENPLTFGGGTKVEIK
B13: 365_A11 (antibody, V domains shown)
VH: EVQLLESGGGLVQPGGSLRLSCAASGFTFDDYGMNWVRQAPGKGLEWVSGINYNSGYTSYADSVKGRFTISRDNSKNTLYLQMNSLRAEDTAVYYCARSANWHDTALDYWGQGTLVTVSS
VL: DIQMTQSPSSLSASVGDRVTITCRASQSILSYLNWYQQKPGKAPKLVIYAATSLASGVPSRFSGSGSGTDFTLTISSLQPEDFATYYCQQSYESPLTFGGGTKVEIK
B14: 365_E05 (antibody, V domains shown)
VH: EVQLLESGGGLVQPGGSLRLSCAASGFTFSSYGMHWVRQAPGKGLEWVAGINYNGGYTSYADSVKGRFTISRDNSKNTLYLQMNSLRAEDTAVYYCARSANWHDTALDYWGQGTLVTVSS
VL: DIQMTQSPSSLSASVGDRVTITCRASQSIVSYVNWYQQKPGKAPKLLIYAATSLASGVPSRFSGSGSGTDFTLTISSLQPEDFATYYCQQSYDNPLTFGGGTKVEIK
B15: 376_A07 (antibody, V domains shown)
VH: EVQLLESGGGLVQPGGSLRLSCAASGFTFSSYSMNWVRQAPGKGLEWVSGINYNGGYKSYADSVKGRFTISRDNSKNTLYLQMNSLRAEDTAVYYCARGATWHDTHLDYWGQGTLVTVSS
VL: DIQMTQSPSSLSASVGDRVTITCRASQSILTYLNWYQQKPGKAPKLLIYAATSRASGVPSRFSGSGSGTDFTLTISSLQPEDFATYYCQQSYDSPLTFGGGTKVEIK
B16: 365_C10 (antibody, V domains shown)
VH: EVQLLESGGGLVQPGGSLRLSCAASGFTFSSYGMHWVRQAPGKGLEWVASINYNGGYTSYADSVKGRFTISRDNSKNTLYLQMNSLRAEDTAVYYCARSANWHDTALDYWGQGTLVTVSS
VL: DIQMTQSPSSLSASVGDRVTITCRASQSILSYVNWYQQKPGKAPKLLIYAATSLASGVPSRFSGSGSGTDFTLTISSLQPEDFATYYCQQSYESPLTFGGGTKVEIK
B17: 365_F01 (antibody, V domains shown)
VH: EVQLLESGGGLVQPGGSLRLSCAASGFTFDSYSMNWVRQAPGKGLEWVSGINYNSGYKGYADSVKGRFTISRDNSKNTLYLQMNSLRAEDTAVYYCARSANWHDTHLDYWGQGTLVTVSS
VL: DIQMTQSPSSLSASVGDRVTITCRASQSIVSYLNWYQQKPGKAPKLVIYAATSLASGVPSRFSGSGSGTDFTLTISSLQPEDFATYYCQQSYELPLTFGGGTKVEIK
B18: 365_F06 (antibody, V domains shown)
VH: EVQLLESGGGLVQPGGSLRLSCAASGFTFSSYGMNWVRQAPGKGLEWVAGINYNSGYKSYADSVKGRFTISRDNSKNTLYLQMNSLRAEDTAVYYCARSANWHDTALDYWGQGTLVTVSS
VL: DIQMTQSPSSLSASVGDRVTITCRASQSILSYVNWYQQKPGKAPKLLIYAATSRASGVPSRFSGSGSGTDFTLTISSLQPEDFATYYCQQSDNLPLTFGGGTKVEIK
B19: 365_B06 (antibody, V domains shown)
VH: EVQLLESGGGLVQPGGSLRLSCAASGFTFDSYGMHWVRQAPGKGLEWVSNINYNGGYKSYADSVKGRFTISRDNSKNTLYLQMNSLRAEDTAVYYCARSANWHDTALDYWGQGTLVTVSS
VL: DIQMTQSPSSLSASVGDRVTITCRASQSILTYVNWYQQKPGKAPKLLIYATTSLASGVPSRFSGSGSGTDFTLTISSLQPEDFATYYCQQSYDLPLTFGGGTKVEIK
B20: 365_E07 (antibody, V domains shown)
VH: EVQLLESGGGLVQPGGSLRLSCAASGFTFDSYGMHWVRQAPGKGLEWVSGINYNSGYTSYADSVKGRFTISRDNSKNTLYLQMNSLRAEDTAVYYCAKSANWHDTHLDYWGQGTLVTVSS
VL: DIQMTQSPSSLSASVGDRVTITCRASQSILSYLNWYQQKPGKAPKLLIYAATSRASGVPSRFSGSGSGTDFTLTISSLQPEDFATYYCQQSYDNPLTFGGGTKVEIK
B21: 365_E09 (antibody, V domains shown)
VH: EVQLLESGGGLVQPGGSLRLSCAASGFTFSSYGMHWVRQAPGKGLEWVASINYNSGYKSYADSVKGRFTISRDNSKNTLYLQMNSLRAEDTAVYYCARSANWHDTALDYWGQGTLVTVSS
VL: DIQMTQSPSSLSASVGDRVTITCRASQSILTYVNWYQQKPGKAPKLVIYAATSRASGVPSRFSGSGSGTDFTLTISSLQPEDFATYYCQQSDDSPLTFGGGTKVEIK

In this assay the target is Human Fc (human). As to the kind of experiment: ELISA; negative control. For orientation: ELISA stands for enzyme-linked immunosorbent assay.
As for B1, the optical density is 0.22 OD.
For B2, the optical density was determined as 0.342 OD.
Molecule B3 displayed an optical density of 0.269 OD.
Molecule B4 gave an optical density of 0.376 OD.
In the case of B5 it was 0.363 OD; in that of B6, 0.302 OD.
The figure for B7 is 0.296 OD; for B8 it is 0.34 OD.
The figure for B9 is 0.445 OD.
For B10, the optical density was 0.332 OD.
B11: the optical density is 0.305 OD.
In the case of B12 it was 0.422 OD.
In the case of B13 it was 0.299 OD; in that of B14, 0.379 OD.
The figure for B15 is 0.221 OD; for B16 it is 0.397 OD.
In turn, B17 gave an optical density of 0.341 OD.
For B18, the optical density was 0.329 OD.
As to B19, the optical density amounted to 0.281 OD.
B20 gave an optical density of 0.302 OD.
In the case of B21 it was 0.322 OD.
